Assays:
Experiment in all cases: purified protein
[1] = system: CCCC(C)(CCO)SC[C@H](N)C(=O)NCC(=O)O; conditions: Mn2+-bound enzyme; 0.1 M Tris-HCl (pH 80 [sic]); coupled with ShPatB
N[C@@H](CS)C(=O)NCC(=O)O = conditions: Mn2+-bound enzyme, 50 mM potassium phosphate, 200 mM NaCl, 37 °C
purified protein = substrate: CCCC(C)(CCO)SC[C@H](N)C(=O)NCC(=O)O; conditions: 0.1 M Tris-HCl (pH 80 [sic]), coupled with ShPatB

Molecule: ShPepV (Staphylococcus hominis)
- Km [1]: 1290 ± 40 µM
- kcat [1]: 3.41 ± 0.07 s⁻¹
- kcat/Km [1]: 2640 ± 100 M⁻¹ s⁻¹
- Km (N[C@@H](CS)C(=O)NCC(=O)O): 2190 ± 220 µM
- kcat (N[C@@H](CS)C(=O)NCC(=O)O): 405 ± 23.6 s⁻¹
- kcat/Km (N[C@@H](CS)C(=O)NCC(=O)O): 186000 ± 21800 M⁻¹ s⁻¹

B1: SaPepV (Staphylococcus aureus subsp. aureus USA300) (protein)
chain: MWKEKVQQYEDQIINDLKGLLAIESVRDDAKASEDAPVGPGPRKALDYMYEIAHRDGFTTHDVDHIAGRIEAGKGNDVLGILCHVDVVPAGDGWDSNPFEPVVTEDAIIARGTLDDKGPTIAAYYAIKILEDMNVDWKKRIHMIIGTDEESDWKCTDRYFKTEEMPTLGFAPDAEFPCIHGEKGITTFDLVQNKLTEDQDEPDYELITFKSGERYNMVPDHAEARVLVKENMTDVIQDFEYFLEQNHLQGDSTVDSGILVLTVEGKAVHGMDPSIGVNAGLYLLKFLASLNLDNNAQAFVAFSNRYLFNSDFGEKMGMKFHTDVMGDVTTNIGVITYDNENAGLFGINLRYPEGFEFEKAMDRFANEIQQYGFEVKLGKVQPPHYVDKNDPFVQKLVTAYRNQTNDMTEPYTIGGGTYARNLDKGVAFGAMFSDSEDLMHQKNEYITKKQLFNATSIYLEAIYSLCVEE
- Km (purified protein; Mn2+-bound enzyme): 3340 ± 340 µM

B2: CgTpdA (Corynebacterium glaucum) (protein)
chain: MSNDNAVNSAVTSTDFTFSPNRERIFQELAELISHYSPHSMPEHAATHEEAAKWVTAKLEELGLDVTRHPTVDDADTIIGVKEPVGDAPTVLLYSHYDVVPAQNPAVWTNDPLELDERGGRWYGRGAADCKGNVIMHLAALRMVQENGGTDLGIKVVVEGSEELGGEDGLGKLIDANPELFTADVIFIGDGGNVAVGIPTLTTHLRGGAQLRIKVDTLEGPVHSGGWGGAAPDAAHALIRISDSFFDEHGRTTIEGVDTTAKWEGDPYDRETFRKDARVLDGVQLLGTVDDEPADMVWARPAITVIGFTSVPVKDATNIVNSTAEAQFNLRVPAPQSAAEVAKKVEEQIYARAPWGAKVEVSVTGVNEPFSTDPNGPAVQHFGKCMQDAYGAERLTVVGTGGSIPLTVTLQKHFPDAEFALYGVADPAANIHGIDESVDPTEIEHVAIAEATFLLTYGK
- Km (purified protein): 480 ± 30 µM

— publication PMC11742315, “Identification of a staphylococcal dipeptidase involved in the production of human body odor” (The Journal of Biological Chemistry, 2024)
